Measurements from the supplement of paper PMC9112550, “Optimization of the antimicrobial peptide Bac7 by deep mutational scanning” (BMC Biology, 2022).

Test system: Escherichia coli TOP10
Experiment: shrunken log2 fold change of peptide-encoding DNA abundance (4.5 h post-induction vs induction); higher = less antimicrobial activity (less host growth inhibition)
Conditions: time post-induction: 4.5 h; library: site-saturation at positions 5, 18, 19, 20
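Further: peptides expressed intracellularly from a pBAD plasmid library in pooled LB shake-flask culture, induced with 0.3% L-arabinose, DNA abundance read by NGS, three biological replicates, DESeq2 with apeglm shrinkage.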

Sequence: RRIRPRPPRLPRPRPRPWFWPRP
- shrunken log2 fold change: 0.281

Sequence: RRIRARPPRLPRPRPRPAYCPRP
- shrunken log2 fold change: -0.00541

Sequence: RRIRSRPPRLPRPRPRPPYSPRP
- shrunken log2 fold change: -0.379

Sequence: RRIRTRPPRLPRPRPRPNMSPRP
- shrunken log2 fold change: -0.562

Sequence: RRIRPRPPRLPRPRPRPEAPPRP
- shrunken log2 fold change: 0.53

Sequence: RRIRGRPPRLPRPRPRPHCGPRP
- shrunken log2 fold change: -0.0798

Sequence: RRIRHRPPRLPRPRPRPVLHPRP
- shrunken log2 fold change: -0.501

Sequence: RRIRQRPPRLPRPRPRPITDPRP
- shrunken log2 fold change: 0.00271

Sequence: RRIRCRPPRLPRPRPRPAHFPRP
- shrunken log2 fold change: 0.147

Sequence: RRIRWRPPRLPRPRPRPEENPRP
- shrunken log2 fold change: -0.0122

Sequence: RRIRCRPPRLPRPRPRPNWEPRP
- shrunken log2 fold change: 0.0349

Sequence: RRIRGRPPRLPRPRPRPLAQPRP
- shrunken log2 fold change: 0.888

Sequence: RRIRHRPPRLPRPRPRPRRSPRP
- shrunken log2 fold change: 0.0555

Sequence: RRIRIRPPRLPRPRPRPWWFPRP
- shrunken log2 fold change: -0.0772

Sequence: RRIRRRPPRLPRPRPRPFWGPRP
- shrunken log2 fold change: 0.463

Sequence: RRIRERPPRLPRPRPRPFPYPRP
- shrunken log2 fold change: -0.256

Sequence: RRIRARPPRLPRPRPRPMVYPRP
- shrunken log2 fold change: -0.0537

Sequence: RRIRSRPPRLPRPRPRPKNDPRP
- shrunken log2 fold change: -0.372

Sequence: RRIRWRPPRLPRPRPRPCKAPRP
- shrunken log2 fold change: -0.0863

Sequence: RRIRRRPPRLPRPRPRPHENPRP
- shrunken log2 fold change: -0.019

Sequence: RRIRFRPPRLPRPRPRPFHWPRP
- shrunken log2 fold change: -0.336

Sequence: RRIRKRPPRLPRPRPRPLWCPRP
- shrunken log2 fold change: 0.0281

Sequence: RRIRGRPPRLPRPRPRPGEHPRP
- shrunken log2 fold change: 0.587

Sequence: RRIRFRPPRLPRPRPRPEVTPRP
- shrunken log2 fold change: -0.0331

Sequence: RRIRKRPPRLPRPRPRPWSGPRP
- shrunken log2 fold change: 0.104

Sequence: RRIRWRPPRLPRPRPRPRIKPRP
- shrunken log2 fold change: 0.0187

Sequence: RRIRARPPRLPRPRPRPNKDPRP
- shrunken log2 fold change: -0.294

Sequence: RRIRCRPPRLPRPRPRPAFEPRP
- shrunken log2 fold change: 0.0704

Sequence: RRIRWRPPRLPRPRPRPCVIPRP
- shrunken log2 fold change: -0.059

Sequence: RRIRGRPPRLPRPRPRPPHYPRP
- shrunken log2 fold change: 0.523

Sequence: RRIRRRPPRLPRPRPRPWSDPRP
- shrunken log2 fold change: -0.107

Sequence: RRIRNRPPRLPRPRPRPPMYPRP
- shrunken log2 fold change: -0.25

Sequence: RRIRLRPPRLPRPRPRPCEAPRP
- shrunken log2 fold change: 0.125

Sequence: RRIRGRPPRLPRPRPRPEYFPRP
- shrunken log2 fold change: 0.11

Sequence: RRIRMRPPRLPRPRPRPFNRPRP
- shrunken log2 fold change: -0.00136

Sequence: RRIRPRPPRLPRPRPRPMRIPRP
- shrunken log2 fold change: 0.189

Sequence: RRIRARPPRLPRPRPRPNGQPRP
- shrunken log2 fold change: 0.208

Sequence: RRIRFRPPRLPRPRPRPQDPPRP
- shrunken log2 fold change: -0.00978

Sequence: RRIRDRPPRLPRPRPRPGNAPRP
- shrunken log2 fold change: 0.126

Sequence: RRIRGRPPRLPRPRPRPYKAPRP
- shrunken log2 fold change: -0.354

Sequence: RRIRKRPPRLPRPRPRPHENPRP
- shrunken log2 fold change: -0.00978

Sequence: RRIRPRPPRLPRPRPRPSKWPRP
- shrunken log2 fold change: -0.242

Sequence: RRIRYRPPRLPRPRPRPNIRPRP
- shrunken log2 fold change: 0.0146

Sequence: RRIRKRPPRLPRPRPRPDIDPRP
- shrunken log2 fold change: 2.44

Sequence: RRIRVRPPRLPRPRPRPAAMPRP
- shrunken log2 fold change: 0.347

Sequence: RRIRDRPPRLPRPRPRPICPPRP
- shrunken log2 fold change: 0.106

Sequence: RRIRQRPPRLPRPRPRPILYPRP
- shrunken log2 fold change: 0.0724

Sequence: RRIRPRPPRLPRPRPRPCWLPRP
- shrunken log2 fold change: -0.018

Sequence: RRIRNRPPRLPRPRPRPITSPRP
- shrunken log2 fold change: -0.282

Sequence: RRIRTRPPRLPRPRPRPSSTPRP
- shrunken log2 fold change: -0.604
